Drawing on article PMC7841142, this text covers band density (Intensity Density) of co-precipitated FLAG-tagged receptor (Intensity Density), binding coefficient (percent of transfected cells co-labelled for the soluble partner) and fluorescence intensity of bound soluble Ncam1b, transfected over untransfected cells for six molecules.

Where “and” joins values, the source holds several entries; their conditions need not be identical. Equal entries are not always repeated.

In assay [1] the target is Ncam1a, Myc- and 6x His-tagged (complete coding sequence), in Hek293 cells (zebrafish). Put plainly: co-IP; Hek293 cells co-transfected with Myc/His-tagged Ncam1a or Ncam1b and FLAG-tagged Fgfr1a-IIIb or -IIIc; lysates precipitated with anti-His antibody and ProteinA beads, blotted with biotinylated FLAG-antibody; band density by Fiji, three independent experiments.
The target in assay [2] is Ncam1b, Myc- and 6x His-tagged (complete coding sequence), in Hek293 cells (zebrafish). Described as above.
Assay [3] deals with Ncam1b, membrane-bound, Myc- and 6x His-tagged (complete coding sequence), on CHO-K1 cells (zebrafish). Kind of assay: immunostaining of cells or tissue; cell overlay assay: transfected CHO-K1 cells (membrane-bound His-tagged protein) on fibronectin-coated coverslips incubated with 20 μg/ml soluble Fc-tagged protein for 1 h at room temperature, washed, fixed, stained with anti-His and anti-hFcγ; read out as binding coefficient (percent of transfected cells co-labelled) and as fluorescence intensity of transfected vs. untransfected cells.

For assay [4], the target named is Fgfr1a-IIIb, membrane-bound, Myc- and 6x His-tagged (complete coding sequence, exon 9.1 variant), on CHO-K1 cells (zebrafish). Described as above.
Assay [5] deals with T1, Fgfr1a-IIIc, membrane-bound, Myc- and 6x His-tagged (complete coding sequence), on CHO-K1 cells (zebrafish), Q90Z00.
T1 chain: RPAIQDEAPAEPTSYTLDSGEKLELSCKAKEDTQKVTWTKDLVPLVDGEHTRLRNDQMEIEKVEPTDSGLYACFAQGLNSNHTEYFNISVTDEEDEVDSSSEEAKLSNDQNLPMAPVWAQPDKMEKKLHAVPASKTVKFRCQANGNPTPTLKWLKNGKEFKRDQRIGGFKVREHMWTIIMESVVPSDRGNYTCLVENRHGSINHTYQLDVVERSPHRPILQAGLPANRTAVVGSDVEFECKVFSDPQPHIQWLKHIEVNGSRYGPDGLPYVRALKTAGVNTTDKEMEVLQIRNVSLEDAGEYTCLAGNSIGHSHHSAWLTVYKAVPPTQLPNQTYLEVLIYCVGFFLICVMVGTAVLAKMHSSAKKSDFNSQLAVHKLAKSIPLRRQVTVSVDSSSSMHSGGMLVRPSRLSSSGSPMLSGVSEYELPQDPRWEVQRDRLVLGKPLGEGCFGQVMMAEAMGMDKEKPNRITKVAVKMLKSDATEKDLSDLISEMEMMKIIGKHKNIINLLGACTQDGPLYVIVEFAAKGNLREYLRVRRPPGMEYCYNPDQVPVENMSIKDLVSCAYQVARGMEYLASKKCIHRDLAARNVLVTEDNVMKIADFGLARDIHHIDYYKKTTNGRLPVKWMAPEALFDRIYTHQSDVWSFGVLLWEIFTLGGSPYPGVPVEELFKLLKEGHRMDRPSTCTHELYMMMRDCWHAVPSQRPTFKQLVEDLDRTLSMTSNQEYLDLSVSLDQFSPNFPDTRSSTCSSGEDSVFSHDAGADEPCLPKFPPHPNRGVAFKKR
Kind of assay: immunostaining of cells or tissue; cell overlay assay: transfected CHO-K1 cells (membrane-bound His-tagged protein) on fibronectin-coated coverslips incubated with 20 μg/ml soluble Fc-tagged protein for 1 h at room temperature, washed, fixed, stained with anti-His and anti-hFcγ; read out as binding coefficient (percent of transfected cells co-labelled) and as fluorescence intensity of transfected vs. untransfected ….

Sequence of Ncam1a, Myc- and 6x His-tagged (complete coding sequence), in Hek293 cells (zebrafish) (main, as listed by the source): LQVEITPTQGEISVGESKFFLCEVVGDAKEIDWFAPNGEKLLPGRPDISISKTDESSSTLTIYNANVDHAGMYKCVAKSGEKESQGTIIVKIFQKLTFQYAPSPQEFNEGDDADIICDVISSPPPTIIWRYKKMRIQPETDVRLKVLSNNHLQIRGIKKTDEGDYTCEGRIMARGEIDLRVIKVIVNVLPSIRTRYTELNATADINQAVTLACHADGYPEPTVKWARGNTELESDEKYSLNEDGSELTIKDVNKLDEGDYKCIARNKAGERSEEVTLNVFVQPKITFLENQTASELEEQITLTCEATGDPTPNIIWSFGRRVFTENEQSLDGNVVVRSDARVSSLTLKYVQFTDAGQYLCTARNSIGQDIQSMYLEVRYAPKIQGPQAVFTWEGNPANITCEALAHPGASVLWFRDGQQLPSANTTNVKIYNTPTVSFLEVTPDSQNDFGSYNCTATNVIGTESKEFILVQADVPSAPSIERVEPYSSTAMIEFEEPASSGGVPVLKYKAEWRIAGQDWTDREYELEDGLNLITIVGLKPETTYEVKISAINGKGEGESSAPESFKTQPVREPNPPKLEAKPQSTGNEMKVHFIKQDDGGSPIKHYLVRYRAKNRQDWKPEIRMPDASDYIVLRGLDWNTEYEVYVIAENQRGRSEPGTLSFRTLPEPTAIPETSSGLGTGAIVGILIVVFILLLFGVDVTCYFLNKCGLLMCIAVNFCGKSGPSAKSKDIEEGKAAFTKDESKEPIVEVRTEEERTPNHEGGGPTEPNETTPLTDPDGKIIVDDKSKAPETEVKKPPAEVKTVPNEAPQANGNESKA

Regarding “Fgfr1a-IIIb, FLAG-tagged (complete coding sequence), in Hek293 cells (receptor)”, the band density (Intensity Density) of co-precipitated FLAG-tagged receptor (Intensity Density) in assay [1] was 89500; in assay [2], 170000 and 203000.
Take “Fgfr1a-IIIc, FLAG-tagged (complete coding sequence), in Hek293 cells (from UniProt Q90Z00 27-810) (receptor)”: the figures for the band density (Intensity Density) of co-precipitated FLAG-tagged receptor (Intensity Density) in assay [1] and in assay [2] were 117000 and 138000, respectively.
With “soluble Fgfr1a-IIIb-Fc (extracellular part of Fgfr1a-IIIb with hIgG-Fc-Tag) (Fc fusion)”, in assay [3], the binding coefficient (percent of transfected cells co-labelled for the soluble partner) was 90%.
The same measure, in the same setting: then “soluble Fgfr1a-IIIc-Fc (extracellular part of Fgfr1a-IIIc with hIgG-Fc-Tag) (from UniProt Q90Z00 27-363) (Fc fusion)”, with 60%.
For “soluble Ncam1b-Fc (extracellular part of Ncam1b with hIgG-Fc-Tag) (Fc fusion)”, in assay [4], the binding coefficient (percent of transfected cells co-labelled for the soluble partner) stood at 90% and the fluorescence intensity of bound soluble Ncam1b, transfected over untransfected cells was determined as 80 % higher.

B1: soluble Ncam1b-Fc (extracellular part of Ncam1b with hIgG-Fc-Tag) (Fc fusion)
chain: LQVDITPAHGEISVGESRFFLCEVIGGAKEIDWFAPAGEKIEPGRPDISVIRNDETSSTLTIYNAKVDNAGTYRCVASSGDQDAEATVNLKIYQKITFTNVPSPQEFTEGDNAIIVCDVISSPPPTVLWKYKGAKIQFDKDVRFKTLSNNHLQIRGIRKTDEGVYTCEGRIKARGEVDFRSIKVVVNVLPTIRIRQAETNATADMGFSTLLACDPDGFPEPIVTWRRNNAPLESGNKYSFNEDGSEMTVLDVTKLDEGDYTCIAKNKAGESEQELSLKVFVQPKITYLESQTTTEMDEQVTLTCEATGDPTPTITWSFGTRVFTEGEQASWTRPEQHKGPDGEVLVRSDARVSSLTLKYPQYTDAGQYLCTARNAIGETVQPVSLEVRYAPKILGSVAVYTWEGNPANISCEVLAHPSDVSITWLRDGFQLPNANTSNIKIHNTPSASYLEVNPESQSDFGNYNCTASNEIGTESREFIMIPADVPSAPSIGEVQPYSSTAQVLFEEPESTGGVPVLKYRAEWRAVGRGKWVQRVYEVKDGLSSVTVTGLKPETDYEVKMSAINGKGEGDSSPSMVFKTEHVQGEPSPPILEGTLQPKGNSLKVKWIKQDDGGSPITHYLVRYKAREDSEWKPEIRLPSGSEYVMLIGLDWDTEYDVFVVAENQQGKSKPGTLTFRTSSEPTATTDSMEDGPGLNTG
modifications: not checked
In assay [5], B1 gave a binding coefficient (percent of transfected cells co-labelled for the soluble partner) of 60%.
